B1: E3 ubiquitin-protein ligase TRIM32 (Homo sapiens), Q13049 (parent)
chain: MAAAAASHLNLDALREVLECPICMESFTEEQLRPKLLHCGHTICRQCLEKLLASSINGVRCPFCSKITRITSLTQLTDNLTVLKIIDTAGLSEAVGLLMCRSCGRRLPRQFCRSCGLVLCEPCREADHQPPGHCTLPVKEAAEERRRDFGEKLTRLRELMGELQRRKAALEGVSKDLQARYKAVLQEYGHEERRVQDELARSRKFFTGSLAEVEKSNSQVVEEQSYLLNIAEVQAVSRCDYFLAKIKQADVALLEETADEEEPELTASLPRELTLQDVELLKVGHVGPLQIGQAVKKPRTVNVEDSWAMEATASAASTSVTFREMDMSPEEVVASPRASPAKQRGPEAASNIQQCLFLKKMGAKGSTPGMFNLPVSLYVTSQGEVLVADRGNYRIQVFTRKGFLKEIRRSPSGIDSFVLSFLGADLPNLTPLSVAMNCQGLIGVTDSYDNSLKVYTLDGHCVACHRSQLSKPWGITALPSGQFVVTDVEGGKLWCFTVDRGSGVVKYSCLCSAVRPKFVTCDAEGTVYFTQGLGLNLENRQNEHHLEGGFSIGSVGPDGQLGRQISHFFSENEDFRCIAGMCVDARGDLIVADSSRKEILHFPKGGGYSVLIREGLTCPVGIALTPKGQLLVLDCWDHCIKIYSYHLRRYSTP
partner: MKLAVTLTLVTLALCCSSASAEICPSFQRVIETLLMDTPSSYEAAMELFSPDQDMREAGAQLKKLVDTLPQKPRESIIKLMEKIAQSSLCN
B2: Nucleoside diphosphate kinase homolog 5 (Homo sapiens), P56597 (parent)
chain: MEISMPPPQIYVEKTLAIIKPDIVDKEEEIQDIILRSGFTIVQRRKLRLSPEQCSNFYVEKYGKMFFPNLTAYMSSGPLVAMILARHKAISYWLELLGPNNSLVAKETHPDSLRAIYGTDDLRNALHGSNDFAAAEREIRFMFPEVIVEPIPIGQAAKDYLNLHIMPTLLEGLTELCKQKPADPLIWLADWLLKNNPNKPKLCHHPIVEEPY
partner: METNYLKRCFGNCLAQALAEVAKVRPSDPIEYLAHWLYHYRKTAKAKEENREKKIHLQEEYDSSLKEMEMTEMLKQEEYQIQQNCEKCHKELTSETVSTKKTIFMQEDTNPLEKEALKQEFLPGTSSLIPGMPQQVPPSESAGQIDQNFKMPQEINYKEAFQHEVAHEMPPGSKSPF
B3: mRNA-decapping enzyme 1A (Homo sapiens), Q9NPI6 (parent)
chain: MEALSRAGQEMSLAALKQHDPYITSIADLTGQVALYTFCPKANQWEKTDIEGTLFVYRRSASPYHGFTIVNRLNMHNLVEPVNKDLEFQLHEPFLLYRNASLSIYSIWFYDKNDCHRIAKLMADVVEEETRRSQQAARDKQSPSQANGCSDHRPIDILEMLSRAKDEYERNQMGDSNISSPGLQPSTQLSNLGSTETLEEMPSGSQDKSAPSGHKHLTVEELFGTSLPKEQPAVVGLDSEEMERLPGDASQKEPNSFLPFPFEQLGGAPQSETLGVPSAAHHSVQPEITTPVLITPASITQSNEKHAPTYTIPLSPVLSPTLPAEAPTAQVPPSLPRNSTMMQAVKTTPRQRSPLLNQPVPELSHASLIANQSPFRAPLNVTNTAGTSLPSVDLLQKLRLTPQHDQIQTQPLGKGAMVASFSPAAGQLATPESFIEPPSKTAAARVAASASLSNMVLAPLQSMQQNQDPEVFVQPKVLSSAIPVAGAPLVTATTTAVSSVLLAPSVFQQTVTRSSDLERKASSPSPLTIGTPESQRKPSIILSKSQLQDTLIHLIKNDSSFLSTLHEVYLQVLTKNKDNHNL

Variants of: B1
Details: with uter_human SCGB1A1, P11684

| Variant | effect of a mutation on the interaction |
| --- | --- |
| E547A | disrupting interaction strength |

Variants of: B2
Details: with dydc2_human DYDC2, Q96IM9

| Variant | effect of a mutation on the interaction |
| --- | --- |
| N198D | with no effect |
| L103F | with no effect |
| I165M | with no effect |
| S50N | with no effect |

Variants of: B3
Details: with pnrc2_human PNRC2, Q9NPJ4
Chain of pnrc2_human PNRC2, Q9NPJ4 (Q9NPJ4 whole entry): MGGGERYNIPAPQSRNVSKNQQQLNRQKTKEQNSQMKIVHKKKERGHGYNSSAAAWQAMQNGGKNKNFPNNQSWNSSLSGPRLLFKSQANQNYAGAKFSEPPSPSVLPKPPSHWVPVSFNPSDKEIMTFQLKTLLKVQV

| Variant | effect of a mutation on the interaction |
| --- | --- |
| Q474H | with no effect |
| A297G | with no effect |

Source: IntAct's records for PubMed 31515488
